# Results as given in publication PMC9731866, “Structures of a constitutively active mutant of human IDH3 reveal new insights into the mechanisms of allosteric activation and the catalytic reaction” (The Journal of Biological Chemistry, 2022).
# Assays:
# [1] = target: αMβ heterodimer of HsIDH3 (α-Q139A with β) (human) (UniProt P50213); experiment: SEC-MALS; low concentration (1 mg/ml); Superdex 200 10/300 GL, 24 °C, 10 mM Hepes pH 7.4, 200 mM NaCl, 5 mM β-ME; N counts the units (heterodimers or heterotetramers) in the oligomer
# [2] = target: αMβ heterodimer of HsIDH3 (α-Q139A with β) (human) (UniProt P50213); experiment: SEC-MALS; high concentration (10 mg/ml); Superdex 200 10/300 GL, 24 °C, 10 mM Hepes pH 7.4, 200 mM NaCl, 5 mM β-ME; N counts the units (heterodimers or heterotetramers) in the oligomer
# [3] = target: αMβαMγ heterotetramer of HsIDH3 (α-Q139A in both heterodimers) (human) (UniProt P50213); experiment: SEC-MALS; low concentration (1 mg/ml); Superdex 200 10/300 GL, 24 °C, 10 mM Hepes pH 7.4, 200 mM NaCl, 5 mM β-ME; N counts the units (heterodimers or heterotetramers) in the oligomer
# [4] = target: αMβαMγ heterotetramer of HsIDH3 (α-Q139A in both heterodimers) (human) (UniProt P50213); experiment: SEC-MALS; high concentration (10 mg/ml); Superdex 200 10/300 GL, 24 °C, 10 mM Hepes pH 7.4, 200 mM NaCl, 5 mM β-ME; N counts the units (heterodimers or heterotetramers) in the oligomer
Substance,stoichiometry N [1],stoichiometry N [2],stoichiometry N [3],stoichiometry N [4]
αMβ heterodimer of HsIDH3 (α-Q139A with β) (from UniProt P50213 28-366; O43837 35-360) (complex),2,2,,
αMβαMγ heterotetramer of HsIDH3 (α-Q139A in both heterodimers) (from UniProt P50213 28-366; O43837 35-360; P51553 40-393) (complex),,,2,2
